Laboratory results published in paper PMC11975949 (Frontiers in Pharmacology, 2025).

Experiments:
[1] = molecular target: NLuc-labeled human GLP-1R (human) (UniProt P43220); experiment: FRET or BRET; BRET in HEK-293 cells co-transfected 1:1 with NLuc-labeled receptor and NES-Venus-mini-G protein; cells in HBSS, agonist (GLP-1 or GIP) for 15 min, coelenterazine h 1 μM; BRET ratio as fold-change from non-stimulated, dose-response of the agonist
[2] = molecular target: NLuc-labeled chimeric receptor GLP-1/GIPR (GLP-1R with the C-terminal tail of GIPR) (human); experiment: as above
[3] = molecular target: NLuc-labeled human GIPR (human) (UniProt P48546); experiment: as above
Sequence of NLuc-labeled human GIPR (human) (P48546 22-466): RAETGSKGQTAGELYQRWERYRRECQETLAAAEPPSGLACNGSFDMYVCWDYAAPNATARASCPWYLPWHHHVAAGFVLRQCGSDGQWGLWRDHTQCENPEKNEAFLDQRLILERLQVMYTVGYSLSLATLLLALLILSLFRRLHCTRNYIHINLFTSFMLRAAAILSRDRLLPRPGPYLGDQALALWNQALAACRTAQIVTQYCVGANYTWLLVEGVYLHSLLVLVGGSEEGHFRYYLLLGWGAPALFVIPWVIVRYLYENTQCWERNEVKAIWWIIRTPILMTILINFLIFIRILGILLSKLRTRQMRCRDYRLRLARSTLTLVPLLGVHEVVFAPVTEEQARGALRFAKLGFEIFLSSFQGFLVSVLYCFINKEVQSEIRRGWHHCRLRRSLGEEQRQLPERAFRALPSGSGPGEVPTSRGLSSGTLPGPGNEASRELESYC

[4] = molecular target: NLuc-labeled chimeric receptor GIP/GLP-1R (GIPR with the C-terminal tail of GLP-1R) (human); experiment: as above
[5] = subjects with obesity, phase 2 study, ref Véniant et al., 2024, Amgen; cited from earlier work
Description: (§1) [Graaf et al., 2016]). Both receptors are expressed in pancreatic β-cells and other cell types, resulting in numerous pleiotropic effects of their peptide agonists. […] [Liu et al., 2022]; [Drucker and Holst, 2023]). Studies show ...

INS-1 832/3 cells [6] = conditions: ref Manchanda et al. (2023); cited from earlier work
GLP-1R = conditions: various cell types; ref Jorgensen et al., 2005; Manchanda et al., 2023; cited from earlier work
Description: For many GPCRs, homologous desensitization first requires the phosphorylation of the active state of the receptor by the G protein-coupled receptor kinase (GRK) family of kinases. This is then followed by the binding of arrestin, which sterically hinders coupling to G proteins, effectively desensitizing the receptor ([Krasel et al., 2005]). Arrestin can also act as a scaffolding protein, linking the receptor to the cellular endocytic machinery and facilitating internalization ([Ferguson, 2001]). It is now appreciated that arrestin can also act as a signaling molecule in its own right, linking ...

INS-1 832/3 cells [7] = conditions: ref Manchanda et al. (2023); cited from earlier work; remark: listed apart in the source
subjects with T2DM = system: subjects with T2DM; set-up: method as in Nauck et al., 1993; Gasbjerg et al., 2020; conditions: pharmacological doses, ref Nauck et al., 1993, Gasbjerg et al., 2020; cited from earlier work
[8] = molecular target: SYFP2-labeled chimeric receptor GLP-1/GIPR (GLP-1R with the C-terminal tail of GIPR) (human); experiment: FRET or BRET; BRET in HEK-293 cells co-transfected 1:2 with SYFP2-labeled receptor and Arr3-NLuc; cells in HBSS, agonist (GLP-1 or GIP) for 15 min, coelenterazine h 1 μM; BRET ratio as fold-change from non-stimulated, dose-response of the agonist
[9] = system: animal models of diabetes and obesity; conditions: ref McClean et al., 2007, Gault et al.; cited from earlier work
Description: as §1

GIPR = conditions: initially considered an antagonist; ref Al-Sabah et al., 2014a; Sparre-Ulrich et al., 2016; cited from earlier work
Description: as §1

[10] = molecular target: RLuc8-labeled chimeric receptor GLP-1/GIPR (GLP-1R with the C-terminal tail of GIPR) (human); experiment: FRET or BRET; BRET in HEK-293 cells co-transfected 1:2 with RLuc8-labeled receptor and Arr3-SYFP2; cells in HBSS, agonist (GLP-1 or GIP) for 15 min, coelenterazine h 1 μM; BRET ratio as fold-change from non-stimulated, dose-response of the agonist

Sequence of NLuc-labeled human GLP-1R (human) (P43220 24-463): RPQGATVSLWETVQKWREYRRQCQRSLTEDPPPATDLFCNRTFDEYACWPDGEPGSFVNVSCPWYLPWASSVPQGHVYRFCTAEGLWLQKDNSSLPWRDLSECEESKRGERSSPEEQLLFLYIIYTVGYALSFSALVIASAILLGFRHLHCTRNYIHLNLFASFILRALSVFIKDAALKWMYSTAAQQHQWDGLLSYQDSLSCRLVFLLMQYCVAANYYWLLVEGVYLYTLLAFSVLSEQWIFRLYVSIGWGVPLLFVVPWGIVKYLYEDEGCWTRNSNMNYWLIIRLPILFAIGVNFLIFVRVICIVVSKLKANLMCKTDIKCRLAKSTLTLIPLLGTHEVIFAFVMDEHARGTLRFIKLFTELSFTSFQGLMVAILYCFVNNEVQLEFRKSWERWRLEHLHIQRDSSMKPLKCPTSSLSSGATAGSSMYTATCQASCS

NES-Venus-mGαq
pEC50 of the agonist GLP-1 for recruitment [1]: 7.3 -log EC50/M
pEC50 of the agonist GLP-1 for recruitment [2]: 7.1 -log EC50/M
pEC50 of the agonist GIP for recruitment [3]: 8.6 -log EC50/M
pEC50 of the agonist GIP for recruitment [4]: 9 -log EC50/M

Maridebart cafraglutide: fully human monoclonal anti-human GIPR antagonist antibody conjugated to two GLP-1R agonist peptides
Weight loss [5]: robust weight loss

CC[C@H](C)[C@H](NC(=O)[C@H](Cc1ccccc1)NC(=O)[C@H](CCC(=O)O)NC(=O)[C@H](CCCCN)NC(=O)[C@H](C)NC(=O)[C@H](C)NC(=O)[C@H](CCC(N)=O)NC(=O)CNC(=O)[C@H](CCC(=O)O)NC(=O)[C@H](CC(C)C)NC(=O)[C@H](Cc1ccc(O)cc1)NC(=O)[C@H](CO)NC(=O)[C@H](CO)NC(=O)[C@@H](NC(=O)[C@H](CC(=O)O)NC(=O)[C@H](CO)NC(=O)[C@@H](NC(=O)[C@H](Cc1ccccc1)NC(=O)[C@@H](NC(=O)CNC(=O)[C@H](CCC(=O)O)NC(=O)[C@H](C)NC(=O)[C@@H](N)Cc1c[nH]cn1)[C@@H](C)O)[C@@H](C)O)C(C)C)C(=O)N[C@@H](C)C(=O)N[C@@H](Cc1c[nH]c2ccccc12)C(=O)N[C@@H](CC(C)C)C(=O)N[C@H](C(=O)N[C@@H](CCCCN)C(=O)NCC(=O)N[C@@H](CCCNC(=N)N)C(N)=O)C(C)C [GLP-1, Glucagon-like peptide-1]
GIP- vs GLP-1-stimulated insulin release (INS-1 832/3 cells [6]): no difference between GIP- and GLP-1-stimulated cAMP production or insulin release
Arrestin recruitment to GLP-1R, in words (GLP-1R): results in the rapid recruitment of arrestin
GIP- vs GLP-1-stimulated cAMP production (INS-1 832/3 cells [7]): no difference between GIP- and GLP-1-stimulated cAMP production
Overcoming the impaired incretin effect in T2DM (subjects with T2DM): can overcome this impairment in subjects with T2DM

NLuc-labeled arrestin3 (from UniProt P32121 1-409) (natural protein)
pEC50 of the agonist GLP-1 for recruitment [8]: 7.3 -log EC50/M

NES-Venus-mGαs
pEC50 of the agonist GLP-1 for recruitment [1]: 7.6 -log EC50/M
pEC50 of the agonist GLP-1 for recruitment [2]: 7.5 -log EC50/M
pEC50 of the agonist GIP for recruitment [3]: 8.9 -log EC50/M
pEC50 of the agonist GIP for recruitment [4]: 8.9 -log EC50/M

(Pro3)GIP: an analog of GIP with a glutamic-acid-to-proline substitution at position 3 (YAPGTFISDYSIAMDKIHQQDFVNWLLAQKGKKNDWKHNITQ; Gastric inhibitory polypeptide; UniProt P09681 52-93, looked up, variant E3P)
Glucose homeostasis and weight gain [9]: improving glucose homeostasis and preventing weight gain
Agonism at GIP receptor (GIPR): low-potency agonist

SYFP2-labeled arrestin3 (from UniProt P32121 1-409) (natural protein)
pEC50 of the agonist GLP-1 for recruitment [10]: 7.18 -log EC50/M
